The target of experiment [1] is T1, recombinant biotinylated monomeric Fc fusion of human Folate Receptor 1 (huFolR1 ECD-AcTev-Fcknob-Avi tag … (human, UniProt P0DOX5 223-449 = IgG part, biotin on the C-terminal Avi tag)).
T1 construct: also called huFolR1-Fc; human FolR1-Fc
Nature of the experiment: SPR ProteOn, Fab analyte on immobilized antigen-Fc. The protocol: (§1) Immobilization of antigens (ligand): Recombinant antigens were diluted with PBST (10 mM phosphate, 150 mM sodium chloride pH 7.4, 0.005% Tween 20) to 10 μg/ml, then injected at 30 μl/minute in vertical orientation. Injection of analytes: For ‘one-shot kinetics’ measurements, injection direction was changed to horizontal orientation, two-fold dilution series of purified Fab (varying concentration ranges) were injected simultaneously along separate channels 1-5, with association times of 150 or 200 s, and dissociation times of 200 or 600 s, respectively. Buffer (PBST) was injected along the sixth channel to provide an “in-line” blank for referencing. Association rate constants (kₒₙ) and dissociation rate constants (koff) were calculated using a simple one-to-one Langmuir binding model in ProteOn Manager v3.1 software by simultaneously fitting the association and dissociation sensorgrams. The equilibrium dissociation constant (KD) was calculated as the ratio koff/kₒₙ.

Experiment [2] deals with T2, recombinant biotinylated monomeric Fc fusion of cynomolgus Folate Receptor 1 (cy FolR1 ECD-AcTev-Fcknob-Avi … (cynomolgus, UniProt P0DOX5 223-449 = IgG part, biotin on the C-terminal Avi tag)).
T2 construct: also called cyFolR1-Fc; cyno FolR1
Nature of the experiment: SPR ProteOn, Fab analyte on immobilized antigen-Fc. The protocol:
as §1

Experiment [3] deals with T3, recombinant biotinylated monomeric Fc fusion of human Folate Receptor 2 (hu FolR2 ECD-AcTev-Fcknob-Avi tag … (human, UniProt P0DOX5 223-449 = IgG part, biotin on the C-terminal Avi tag)).
T3 construct: also called FolR2-Fc
Nature of the experiment: SPR ProteOn, Fab analyte on immobilized antigen-Fc. The protocol: as §1

Experiment [4] concerns the target T4, recombinant biotinylated monomeric Fc fusion of human Folate Receptor 3 (hu FolR3 ECD-AcTev-Fcknob-Avi tag … (human, UniProt P0DOX5 223-449 = IgG part, biotin on the C-terminal Avi tag)).
T4 construct: also called FolR3-Fc
Nature of the experiment: SPR ProteOn, Fab analyte on immobilized antigen-Fc. The protocol: as §1

Experiment [5] concerns the target T5, recombinant biotinylated monomeric Fc fusion of murine Folate Receptor 1 (mu FolR1 ECD-AcTev-Fcknob-Avitag … (murine, UniProt P0DOX5 223-449 = IgG part, biotin on the C-terminal Avi tag)).
T5 construct: also called muFolR1-Fc; murine FolR1
Nature of the experiment: SPR ProteOn, Fab analyte on immobilized antigen-Fc. The protocol:
as §1

Experiment [6] concerns the target T6, human FolR1 expressed on cells (HeLa, SKOV3, HT-29, transfected HEK cells) (human, UniProt P15328 25-234). Nature of the experiment: cell-based or functional assay.
The target of experiment [7] is T6, human FolR1 expressed on cells (HeLa, …). Nature of the experiment: cell-based or functional assay. The source holds these as a separate data set.
Experiment [8] concerns the target T1, recombinant biotinylated monomeric Fc …. Nature of the experiment: SPR Biacore, avidity (bivalent).
The target is the same in experiment [9]. Nature of the experiment: SPR Biacore, affinity (monovalent).
For experiment [10] the target is unchanged. Nature of the experiment: SPR Biacore, affinity (monovalent), antibody captured via anti-Fab. The protocol: (§2) All SPR experiments were performed on a Biacore T200 at 25° C. with HBS-EP as running buffer (0.01 M HEPES pH 7.4, 0.15 M NaCl, 3 mM EDTA, 0.005% Surfactant P20, Biacore, GE Healthcare). The molecules used for affinity and avidity determination are described in Table 45.
(§3) For affinity measurement, direct coupling of around 12000 resonance units (RU) of the anti-human Fab specific antibody (Fab capture kit, GE Healthcare) was performed on a CM5 chip at pH 5.0 using the standard amine coupling kit (GE Healthcare). Anti-FolR1 T cell bispecifics were captured at 20 nM with a flow rate of 10 μl/min for 40 sec, the reference flow cell was left without capture. […] The dissociation phase was monitored for 300 s and triggered by switching from the sample solution to HBS-EP. The chip surface was regenerated after every cycle using a double injection of 60 sec 10 mM Glycine-HCl pH 2.1. Bulk refractive index differences were corrected for by subtracting the response obtained on the reference flow cell 1. The affinity constants for the interactions were derived from the rate constants by fitting to a 1:1 Langmuir binding using the Bia Evaluation software (GE Healthcare). For low affinity kinetics with association and dissociation phases too fast to be fitted by the 1:1 Langmuir binding model, the steady state analysis model was applied using the Bia Evaluation software (GE Healthcare). The steady state analysis gives the KD of the binding reaction at equilibrium.

Experiment [11] has the same target. Nature of the experiment: SPR Biacore, avidity (bivalent, apparent KD), antigen-Fc on SA chip. The protocol:
as §2
(§4) Recombinant biotinylated monomeric Fc fusions of human, cynomolgus and murine Folate Receptor 1 (FolR1-Fc) were directly coupled on a SA chip using the standard coupling instruction (Biacore, GE Healthcare). The immobilization level was about 200-300 RU. […] The dissociation was monitored for 240 or 600 seconds. The chip surface was regenerated after every cycle using a double injection of 30 sec 10 mM Glycine-HCl pH 1.5. Bulk refractive index differences were corrected for by subtracting the response obtained on reference flow cell immobilized with recombinant biotinylated murine IL2R Fc fusion (unrelated Fc fused receptor). The binding curves resulting from the bivalent binding of the T cell bispecifics were approximated to a 1:1 Langmuir binding (even though it is a 1:2 binding) and fitted with that model to get an apparent KD representing the avidity of the bivalent binding. The apparent avidity constants for the interactions were derived from the rate constants of the fitting using the Bia Evaluation software (GE Healthcare).

Experiment [12] concerns the target T2, recombinant biotinylated monomeric Fc …. The description is as above. The protocol: as §2, §4
Experiment [13] has the same target. Nature of the experiment: SPR Biacore, affinity (monovalent), antibody captured via anti-Fab, steady state analysis. The protocol: as §2, §3
Experiment [14] deals with T1, recombinant biotinylated monomeric Fc …. Nature of the experiment: SPR Biacore, single injection on immobilized antigen-Fc. The procedure, abridged: (§5)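 Biacore T200 at 25 °C in HBS-EP (HEPES pH 7.4). Biotinylated FolR-Fc fusions captured on SA chip at about 300-400 RU. IgGs injected once at 500 nM for 60 s to assess cross-reactivity and specificity.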
Experiment [15] deals with T2, recombinant biotinylated monomeric Fc …. The description is as above. In short, it runs like this:
as §5

The target of experiment [16] is T3, recombinant biotinylated monomeric Fc …. The description is as above. The procedure, abridged: as §5
Experiment [17] deals with T4, recombinant biotinylated monomeric Fc …. The description is as above. In short, it runs like this: as §5

Substitutions are numbered along the chain they refer to. Names and notes keep the numbering of the source.

T6 sequence (P15328 25-234): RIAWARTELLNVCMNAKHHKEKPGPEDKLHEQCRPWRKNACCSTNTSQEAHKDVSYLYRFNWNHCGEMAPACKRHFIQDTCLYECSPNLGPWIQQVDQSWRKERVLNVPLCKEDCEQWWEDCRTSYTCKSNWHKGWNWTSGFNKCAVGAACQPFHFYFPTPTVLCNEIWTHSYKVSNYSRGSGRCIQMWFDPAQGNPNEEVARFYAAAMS

B1: 14E4 Fab (Fab, V domains shown)
VH: not shown
VL: EIVLTQSPGTLSLSPGERATLSCRASQSVSSSYLAWYQQKPGQAPRLLIYGASSRATGIPDRFSGSGSGTDSTLTISRLEPEDFAVYYCQQPTSSPITFGQGTKVEIK
notes: bacterial Fab
With B1, the binding result in experiment [1], in [2], in experiment [3] and in [4] was “no binding” in each case.

B2: 9D11 Fab (Fab, V domains shown)
VH: QVQLVQSGAEVKKPGASVKVSCKASGYTFTSYYMHWVRQAPGQGLEWMGIINPSGGPTSYAQKFQGRVTMTRDTSTSTVYMELSSLRSEDTAVYYCARGDFAWLDYWGQGTLVTVSS
VL: not shown
notes: bacterial Fab
As to B2, the figures for the Kd in experiment [1] and in [2] were 8.64 nM and 5.29 nM, respectively. For the same molecule, the binding result in [5], in [3] and in experiment [4] was “no binding” each time.

B3: 36F2 Fab (Fab, V domains shown)
VH: QVQLVQSGAEVKKPGASVKVSCKASGYTFTSYYMHWVRQAPGQGLEWMGIINPSGGSTSYAQKFQGRVTMTHDTSTSTVYMELSSLRSEDTAVYYCARSFFTGFHLDYWGQGTLVTVSS
VL: EIVLTQSPGTLSLSPGERATLSCRASQSVSSSYLAWYQQKPGQAPRLLIYGASSRATGIPDRFSGSGSGTDFTLTISRLEPEDFAVYYCQQYTNEHYYTFGQGTKVEIK
notes: bacterial Fab
Turning to B3, the Kd in experiment [1] was found to be 1810 nM; in experiment [2], 1640 nM; in [5], 737 nM. For the same molecule, the binding result in experiment [3] and in [4] was “no binding” in each case.

B4: 16D5 G49S/K53A TCB (2+1 inverted, common light chain) (bispecific antibody, V domains shown)
VH 1: not shown
VL: QTVVTQEPSLTVSPGGTVTLTCGSSTGAVTTSNYANWVQQKPGQAPRGLIGGTNARAPGTPARFSGSLLGGKAALTLSGVQPEDEAEYYCALWYSNLWVFGGGTKLTVL
VH 2: not shown
Take B4: in experiment [6], the “EC50 of T-cell killing of Hela, 24 h” value came to 4.4 pM and the “EC50 of T-cell killing of SKov-3, 24 h” value came out at 1700 pM. In experiment [7], the “EC50 of T-cell killing of HT-29, 48 h” value turned out to be 1790 pM; the “EC50 of T-cell killing of Hela, 48 h” value was found to be 0.5 pM; the “EC50 of T-cell killing of SKov-3, 48 h” value worked out at 950 pM. Moreover, the “fold lower avidity than 16D5 WT (3 nM)” value in [8] turned out to be 13 fold. Besides, the “fold lower affinity than 16D5 WT (57 nM)” value in [9] was found to be 30 fold. In addition, in experiment [10], the Kd worked out at 1700 nM, the koff was found to be 0.0159 s⁻¹ and the kon is 9170 M⁻¹ s⁻¹. Also, in experiment [11], the Kd turned out to be 40 nM, the koff stood at 0.00586 s⁻¹ and the kon turned out to be 132000 M⁻¹ s⁻¹. Further, in experiment [12], the Kd amounted to 70 nM, the off-rate constant (koff) was 0.0256 s⁻¹ and the kon was found to be 373000 M⁻¹ s⁻¹. The Kd in [13] stood at 1900 nM.

B5: 20G6 IgG (antibody, V domains shown)
VH: QVQLVQSGAEVKKPGASVKVSCKASGYTFTSYYMHWVRQAPGQGLEWMGIINPSGGSTSYAQKFQGRVTMTRDTSTSTVYMELSSLRSEDTAVYYCARGEWIRYYHFDYWGQGTLVTVSS
VL: B4 VL with T2A, Q40E, P46F, A55K, V80A
notes: human IgG1
As to B5, the binding result in experiment [14], in [15], in experiment [16] and in experiment [17] was “no binding (tested: 500 nM)” in each case.

B6: 19H3 IgG (antibody, V domains shown)
VH: B5 VH with G99T, E100G, I102S, Y104W, Y105G, H106Y, F107M
VL: B4 VL with T2A, Q40E, P46F, A55K, V80A
notes: human IgG1
Turning to B6, the binding result in [14], in [15], in experiment [16] and in experiment [17] was “no binding (tested: 500 nM)” each time.

The record behind these values is patent publication US20220220224A1 (Hoffmann-La Roche, published 2022).
